Test results as given in patent US20230015291.

Target: rabbit skeletal muscle actin protein (Cytoskeleton, Denver, Colo., Catalog #AKL99-A), P68135

B1: recombinant wild-type human DNase1 (protein)
chain: LKIAAFNIQTFGETKMSNATLVSYIVQILSRYDIALVQEVRDSHLTAVGKLLDNLNQDAPDTYHYVVSEPLGRNSYKERYLFVYRPDQVSAVDSYYYDDGCEPCGNDTFNREPAIVRFFSRFTEVREFAIVPLHAAPGDAVAEIDALYDVYLDVQEKWGLEDVMLMGDFNAGCSYVRPSQWSSIRLWTSPTFQWLIPDSADTTATPTHCAYDRIVVAGMLLRGAVVPDSALPFNFQAAYGLSDQLAQAISDHYPVEVMLK
nuclease activity, SYTOX Green fluorescence assay (RFU over time), 4.5 nM enzyme with or without 40 ug/ml actin: The nuclease activity of the recombinant human DNase1 was inhibited by actin
